Reference: the nanobody polyreactivity screen of Harvey et al. (2022)

Experiment: yeast display, Sf9 membrane polyspecificity reagent, FACS + sequencing; frameworks hold sequencing errors
Summary of the method: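 Synthetic nanobody libraries on Saccharomyces cerevisiae BJ5465 were galactose-induced for 36–48 hours, stained 1 hour at 4 °C with 10% biotinylated, detergent-solubilized Sf9 membrane reagent and enriched on streptavidin microbeads. FACS then separated cells into low and high (top ~1%) gates by anti-HA (expression) and streptavidin (reagent binding) fluorescence. Genes were colony-PCR amplified, MiSeq 2 × 250 sequenced and CDR-length filtered. A clone's polyreactivity label is that of its gate of origin.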

Sequence | polyreactivity (PSR sort gate)
QVQLQESGGGLMQAGGSQRLSCAASGSISYYSDMGWYPQAPGKEREFVAGIGYGTTTNYADSVKGRFTTSRDNAKNTVYMQMISMKPEDTAVYYCAAYQGNGYEFYYWGQGTQVTVRS | low polyreactivity
QVQLVESGGGLVQAGGSLRLSCAASGSTFVFYAMGWYRQAPGKERELVAINSGGSTYYADSVKGRFTISRDNAKKTVYLQMNSLKPVDTAVYYCAKDRLRVWRFDYWGQGTQVTVSS | low polyreactivity
QVQHVESGGGLVQAGGSLRLSCAASGFIFNRNAMGWYRQAPGKERELVAAISTRGSTYYADSVKGRFTISRDNAKNTDYLQMNSLKPEDTAVYYCAKAVYVDQGTYYYCGQGTQVTVSS | low polyreactivity
QVQLVESGGGLVQAGGSLRLSCAASGFTLDPYAMGWYRQAPGKERELVAAIRLSGSSTYYADSVKGRFTISRDNAKNTVYLQMNSLKPEDTAVYYCAADGISHWLYRYDYWGQGTQVTVSS | low polyreactivity
QVQLVESGGGLVQAGGSLRLSCADSGRTFGSNAMGWYRQAPGKERELVAAISSTVSTNYADSVKGRFTISRDNAKNTVYLQMNSLKPEDTAVYYCNVTRHYSYVSEYDYWGQGTQVTVSS | low polyreactivity
LVQLQESGGGLVQAGGSLRLSCAASGTISPGGNMGWYRQAPGKERELLASINVGGSTNYADSVKGRFTISRDNAINTVFLQMNSLKPDDNAVFYCAVWGRNRLQLSYWGQGTQVTVSS | low polyreactivity
QVQLVESGGGLVQAGGSLRLSCAASGSIFDAYAMGWYRQAPGKERELVAAITTGGGSTYYADSVKGRFTISRDTAKNTVYLQMNSLKPEDTAVYYCARDYGKYKGYYWGQGTQVTVSS | low polyreactivity
QVQHVESGGGLVQAGGSLRLSCAASGRTFYRNAMGWSRQAPGKERELVARINDGAGTYYADSVKGRFTISRDNAKNTVYLQMNSLKPEDTAVYYCAADYGSKLDYGYWGQGTQVTVSS | low polyreactivity
QVQLVESGGGLVQAGGSLRLSCAASGFTFNRYDMGWYRQAPGKERELVAAITGGSGSTYYADSVKGRFTISRDNAKNTVYLQMHSLKPEDTAVYDCAARRYRLSTPEFNYWGQGTQVTVSS | high polyreactivity
QVQLVESGGGLVQAGGSLRLSCAASGRIFPVNAMGWYRQAPGKERELVATISRGGNTYYADSVKGRFTISRDNAKNTVYLQMNSLKPEDTAVYYCNVDRGNPVPPSEYWGQGTQVTVSS | low polyreactivity
QVQLGESGGGLVQAGGSLRLSCAASGSILRTYTMGWYRPAPGKERELVAAISSSGGRTYYADSVKGRFTISRDNAKNTVYLQMNSLKPEDTAVYYCNAGGYRYRSYDYWGQGTQVTVSS | high polyreactivity
QVQLVESGGGLVQAGGSLRLSCAASGFNFYGYAMGWYRQAPGKERQLVATISRGGSTTYYADSVKGRFTISRDNAKNTVYLQMNSLKPEDTAVYYCAAYNVIYTRRMYYWGQGTQVTVSS | high polyreactivity
QVQLVESGGGLVQAGGSLRLSCDPSGSIFDGYGMGWYRQAPGKERELVASITWNDGSTYYADSVKGRFTISRDNAKNTVYLQMNSLKPEDTAVYYCAADQWGYEYDYWGQGTQVTVSS | low polyreactivity
QVQLVESGGGLVQAGGSLRLSCAASGSTFAIYAMGLYRQAPGKERELVAAITRSGGNTYYAESVKGRFTISRDNAKNTVYLQMNSLKPEDTAVYYCNAETYYWSAYAQYEYWGQGTQVTVSS | high polyreactivity
QVQLVESGGGLVQAGGSLRLSCAASGRTFQYNTMGWYRQAPGKERELVAAISWSGGRTYYADSVKGRFTISRDNAKNTVYLQMNSLKPEDTAVYYCAADGTPEIRDNYWGQGTQVTVSS | high polyreactivity
QVQLVESGGGLVQAGGSLRLSCAASGSIFNRNAMGWYRQAPGKERELVATITRNGGRTYYADSVKGRFTISRDNAKNTVYLQMNSLKPEDTAVYYCNAVRQRLRPGNLFDLDYWGQGTQVTVSS | low polyreactivity
QVQLVESGGGLVQAGGSLRLSCAASGFTFSTYAMGWYRQAPGKERELVAAITRSGGSTYYADSVKGRFTISRDNAKNTVYLQMNSLKPEDTAVYYCATDASFYDPDLYPYGYDYWGQGTQVTVSS | high polyreactivity
QVQLVESGGGLVQAGGSLRLSCAASGSIFTYNAMGWYRQAPGKERELVAAISSRGTSTYYADSVKGRFTISRDNAKNTVYLQMNSLKPEDTAVYYCAAVWVSQRRPWGNTNNYWGQGTQVTVSS | high polyreactivity
QVQLVESGGGLVQAGGSLRLSCAASGFIFDFYTMGWYSQAPGKERELVAAITNGGSTYYADSVKGRFTISRDNAKNTVYLQMNSLKPEDTAVYYCAAYYRSRHHGYDSWGQGTQVTVSS | low polyreactivity
QVQVVESGGGLVQAGGSLRLSCAASGRTFYPYAMGWYRQAPGKERELVAAISSSGGSTYYADSVKGRFTISRDNAKNTDYLPMNSLKPEDTAVYYCAAVASKYKYTGGMDYWGQGTQVTVSS | high polyreactivity
QVQLVESGGGLVQAGGSLRLSCAASGRIFGRNAMGWYIQAPGTERELVAAISKSGTSTYYADSVKGRFTISRDNAKNTVYLQMNSLKPEDTAVYYCAAALPGYGDYYYWGQGTQVTVSS | high polyreactivity
QVQHVESGGGLVQAGGSLRLSCAASGFTFKRNAMGWYRPAPGKERELVAAITWSGGSTYYADSVKGRFTISRDNAKNTVYLQMNSLKPEDTEVYYCAALYRSRYYSGDYWGQGTQVTVSS | high polyreactivity

Sequence | polyreactivity (PSR sort gate)
QVQLVESAGGLVQAGGSLRLSCAASGSTFTYYAMGWSRQAPGKESELVAAISSGASTYYADSVKGRFTFSRDNAKNTVYLQMNSLKPEDTAVYYCNAKKSIRPYRTGMDYWGQGTQVTVSS | high polyreactivity
QVQLVETGGGLVQAGGSLRLSCADYGYILWNAMGWYRQAPGTEMELVPAIRFRGGSTSYADSVKGRFTISRDNAQNTVYLQMKSLKPVYTAVYYCNARWWVIRPYERHDYWGQGTQVTVTS | low polyreactivity
QVQLVESGGGLVQAGGSLRLSCAASGIIFYDYAMGWYRQAPGKERELVAAISRSGSSTYYADSVKGRFTISRDNAKNTVYLQMNSLKPEDTAVYYCASRFGDMGYWGQGTQVTVSS | high polyreactivity
QVQLVESGGGLVQAGGSLRLSCAASGYIFHRYVMGWYRQAPGKERELVASISWSGGSTYYADSVKGRFTISRDNAKNTVYLQMTSLKPEDTAVYYCGALSPYRRGYYWGQGTQVTVSS | high polyreactivity
QVQLVESGGGLVQAGGSLRLSCAASGSTFHLNAMGWYIQAPGKERELVAAISLSGGSTYYADSVKGRFTISRDHAKNTVYLQMNSLKPEYTAVYYCAAEQWYDNYLEYDYWGQGTEVTVSS | high polyreactivity
QVQLVESGGGLVQAGGSLRLSCAASGRTIDPNAMGWYRQAPGKERELVAAITRTGVRTYYADSVKGRFTISRDNAKNTVYLQMNSLKPEDTAVYYCNRYGARSNDYWGQGNQVTVSS | low polyreactivity
QVQLVESGGGLVQAGGSLRLSCAASGLTFYSYAMGWYRQAPGKERELVAAISKSGGSTYYADSVKGRFTISRDNAKNSVYLQMNSLKPEDTAVYYCNALTKTGTPPDYDYWGQGTQVTVSS | high polyreactivity
QVQLVESGGGLVQAGGSLRLSCAASGRTFIWYVMGWYRQAPGKERELVASISTNGGNTYYADSVKGRFTISRDNAKNTVYLQMNSLKPEDTAVFYCAVDGVDAYYIAYYYWGQGTQVTVSS | high polyreactivity
QVQIVDSGRGLVQAGGSLRLSCAASGRTFIRYTMGWSRQATGKERELFAAITSGGITNYADSVKGRFTISRDNAKNPVYLQMNSLKPQDSALYYCAARHRWVTGSYGKYDYLGQGTQVTVSS | low polyreactivity
QVQLVESGGGLVQAGGSLRLSCAASGSTFLYNAMGWYRQAPGKERELVATISSGGGSTNYADSVKGRFTISRDNAKNTVYLQMNSLKPEDTAVYYCAVEGYDSYKDDYWGQGTQVTVSS | low polyreactivity
QVQLVESGGGLVQAGGSLRLSCAASGFTFGVYAMGWYRQAPGKERELVAAITRSGGSTYYADSVKGRFTISRDNAKNTVYLQMNSLKPEDTAVYYCASRARDHYGYWGQGTQVTVSS | high polyreactivity
QVQLVESGGGLVQAGGSLRLSCAASGRTDRTNAMGWYRQAPGKERELVAAISTGGGITNYADSVKGRITISRDNAKNTVYLQMNSLKPEDTAVYYCNADIYTWFQIGGYQYDYWGQGTHVTVSS | low polyreactivity
QVQLVESGGVLVQAGGSLRLSCAASGSTFYGYAMGWYRQAPGKERELVAAITRSGGSTYYADSVKGRFTISRDNAKNTVYLQMNSLKPEDTAVYYCARQDRDTYYHRYYYWGQGTQVTVSS | high polyreactivity
QVQLVESGGGLVQAGGSLRLSCAASGLTFYYYAMGWYRQAPGKERELVAAITGSGGRTSYADSVKGRFTISRDNAKNTVYLQMNSLKPEDTAVYYCAARNKRRGYPWQGQQKVLNFDYWGQGTQVTVSS | high polyreactivity
QVQLVESGGGLVQAGGSLRLSCAASGFTFSSYAMGWYRQAPGKERELVAAITRSGGNTYYADSVKGRFTISRDYAKNTVYLQMNSLKPEDTAVYDCAAPGKGISPSHYYWGQGTQVTVSS | high polyreactivity
QVQLVESGGGLVQAGGSLRLSCAASGSTLSRYTMGWSRQAPGKERELVAAIRSSGGSTYYADSVKGRFTISRDNAKNTVYLQMNSLKPEDTAVYYCARTQQRTTEREHWIRYYYWGQGTQVTVSS | low polyreactivity
QVQLVESGGGLVQAGGSLRISCAASGRTFRPYPMGWYRQAPGKDRELVAAIDSSGTSTYYADSVKGRFTISRDNAKNTVYLQMNSLKPEDTAVYYCAKAWPDHWYSRYDYWGQGTQVTVSS | low polyreactivity
QVQLVESGGGLVQAGGSLRLSCAASGRTFVNNAMGRYREAPGKERELVAAITTSAGSTYYADSVKGRFTISRDNAKNTVYLQMNSLNPEDTAVYYCAAVVWKKRYFDLEYWGQGTQVTVSS | low polyreactivity
QVQLQESGGGLVQVGGSQRLSCAASGNNFYNYAMGWYRHAQGKEREFDATINHGTSINYADSVKGRFTISRDNAKNTVYLQMNSLKPEDTAVYYCAADLSWTDNLFYWGQGTQVTVSS | low polyreactivity
QVQLVESGGGLVQAGGSLRLSCAASGITFRWYAMGWYRQAPGKERELVAAISSSGGSTYYADSVKGRFTISRDNAKNTVYLQMNSLKPEVTAVYYCAAYTSYASDYWGQGTQVTVSS | high polyreactivity
QVQLVESGGGLVQAGGSLRLSCAASGSTFDLYAMGWYRPAPGKERELVAAITSSGGRTYYADSVKGRFTISRDNAKNTVYLQMNSLKPEDTAVYYCAATSSGGYYDGYNYWGQGTQVTVSS | high polyreactivity
